Here are results for one molecule from KR20220012792A (dated 2022).

Read-outs that look alike come from different tables or passages of the source.

Common to all, as to assay: cell-based or functional assay
Assay [1] deals with T1, S 단백질 of SARS-CoV-2 BetaCoV/Korea/KCDC03/2020 (614D, S형) (SARS-CoV-2).
Assay [2] has as its target S 단백질 of SARS-CoV-2 hCoV-19/South Korea/KNIH04/2020 (L형) (SARS-CoV-2).
In assay [3] the target is S 단백질 of SARS-CoV-2 hCoV-19/Korea/KCDC31/2020 (V형) (SARS-CoV-2).
In assay [4] the target is T1, S 단백질 of SARS-CoV-2 …. The source holds these as a separate data set.
Assay [5] has as its target T1, S 단백질 of SARS-CoV-2 …. The source holds these as a separate data set.

B1: No. 139 항체 (Full IgG) (antibody, V domains shown)
VH: QITLKESGPTLVKPTQTLTLTCSFSGFSLSTSGVGVGWIRQPPGKALEWLALIDWDDNKYHTTSLKTRLTISKDTSKNQVVLTMTNMDPVDTATYYCARIPGFLRYRNRYYYYGMDVWGQGTTVTVSS
VL: ELVLTQPPSVSAAPGQKVTISCSGSSSNIGNNYVSWYQQLPGTAPKLLIYDNNKRPSGIPDRFSGSKSGTSATLGITGLQTGDEADYYCGTWDSSLSAGVFGGGTELTVL
As to B1, the “IC50 (ng/ml), PRNT” value came to 6.76 ng/mL in assay [1]; 4.79 ng/mL in assay [2]; 8 ng/mL in assay [3]; 4.1 ng/mL in assay [4]; 29.8 ng/mL in assay [5]. The “IC50, PRNT” value in assay [4] came out at 8.37 ng/mL.
